We go through 1 molecule from US20210340252A1.

This assay concerns the target human TIM-3 protein (coated on ELISA plates) (human) (UniProt Q8TDQ0). Put plainly: competition ELISA on plate-coated human TIM-3 against biotinylated WBP340-BMK8 (self-competition), detection with SA-HRP.

B1: WBP340-BMK8 (antibody, from another filing, human IgG4, V domains shown)
VH: QVQLVQSGAEVKKPGSSVKVSCKASGYTFTSYNMHWVRQAPGQGLEWMGDIYPGNGDTSYNQKFKGRVTITADKSTSTVYMELSSLRSEDTAVYYCARVGGAFPMDYWGQGTTVTVSS
VL: AIQLTQSPSSLSASVGDRVTITCRASESVEYYGTSLMQWYQQKPGKAPKLLIYAASNVESGVPSRFSGSGSGTDFTLTISSLQPEDFATYFCQQSRKDPSTFGGGTKVEIKR
On to B1, for which the IC50 (read off the curve) was 2 nM.
